Measurements as given in US20140322225A1.

Experiments:
[1] = target: ADM (human or mouse, not stated for this control); test: cell-based or functional assay
[2] = target: human recombinant adrenomedullin receptor (CRLR+RAMP3) (human)

| Maximal inhibition of ADM bioactivity (ADM-Bioassay) (%) [1] [%] | EC50 (read off the curve), cAMP formation [2] [nM] | Substance |
| --- | --- | --- |
| 0 | – | Non specific mouse IgG (antibody) |
| – | 1 | human adrenomedullin (hADM 1-52) (peptide) |
